According to patent US20200317768A1 (published 2020):

T1: human FcγRIIaR extracellular domain with C-terminal His-tag (human, UniProt P12318 34-217)
T1 construct: also called human FcgRIIaR; FcγRIIa (type R)
T1 chain: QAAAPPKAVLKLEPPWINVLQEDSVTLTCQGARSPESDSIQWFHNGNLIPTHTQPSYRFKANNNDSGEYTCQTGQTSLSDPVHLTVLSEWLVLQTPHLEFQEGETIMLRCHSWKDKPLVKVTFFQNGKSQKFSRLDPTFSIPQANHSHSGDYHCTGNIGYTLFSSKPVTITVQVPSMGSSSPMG

T2: human FcγRIIb extracellular domain with C-terminal His-tag (human, UniProt P31994 43-217)
T2 construct: also called human FcgRIIb
T2 sequence: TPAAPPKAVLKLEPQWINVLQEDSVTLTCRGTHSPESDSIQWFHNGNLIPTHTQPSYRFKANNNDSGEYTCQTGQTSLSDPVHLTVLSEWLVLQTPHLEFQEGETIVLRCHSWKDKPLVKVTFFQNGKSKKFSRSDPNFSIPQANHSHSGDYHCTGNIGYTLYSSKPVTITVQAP

T3: cynomolgus monkey FcγRIIa2 extracellular domain with C-terminal His-tag (cynomolgus monkey)
T3 construct: also called cyno FcgRIIa2; cynoFcγRIIa2
T3 chain: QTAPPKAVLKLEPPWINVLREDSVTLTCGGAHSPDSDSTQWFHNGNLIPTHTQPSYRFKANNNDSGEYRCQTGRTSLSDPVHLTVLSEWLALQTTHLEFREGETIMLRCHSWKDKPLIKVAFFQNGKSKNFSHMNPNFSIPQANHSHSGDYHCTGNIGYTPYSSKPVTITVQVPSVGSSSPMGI

T4: cynomolgus monkey FcγRIIa3 extracellular domain with C-terminal His-tag (cynomolgus monkey)
T4 construct: also called cyno FcgRIIa3; cynoFcγRIIa3
T4 chain: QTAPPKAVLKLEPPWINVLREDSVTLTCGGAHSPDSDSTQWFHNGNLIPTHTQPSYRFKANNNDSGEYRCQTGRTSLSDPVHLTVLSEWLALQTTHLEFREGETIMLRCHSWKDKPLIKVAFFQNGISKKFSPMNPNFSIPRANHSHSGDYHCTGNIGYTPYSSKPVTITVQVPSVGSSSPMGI

T5: cynomolgus monkey FcγRIIa1 extracellular domain with C-terminal His-tag (cynomolgus monkey)
T5 construct: also called cyno FcgRIIa1; cynoFcγRIIa1
T5 chain: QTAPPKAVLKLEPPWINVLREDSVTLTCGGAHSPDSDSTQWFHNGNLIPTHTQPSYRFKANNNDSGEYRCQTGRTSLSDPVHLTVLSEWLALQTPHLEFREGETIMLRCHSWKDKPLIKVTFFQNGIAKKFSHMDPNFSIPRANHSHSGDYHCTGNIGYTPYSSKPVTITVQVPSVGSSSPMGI

T6: cynomolgus monkey FcγRIIb extracellular domain with C-terminal His-tag (cynomolgus monkey)
T6 construct: also called cyno FcgRIIb; cynoFcγRIIb
T6 chain: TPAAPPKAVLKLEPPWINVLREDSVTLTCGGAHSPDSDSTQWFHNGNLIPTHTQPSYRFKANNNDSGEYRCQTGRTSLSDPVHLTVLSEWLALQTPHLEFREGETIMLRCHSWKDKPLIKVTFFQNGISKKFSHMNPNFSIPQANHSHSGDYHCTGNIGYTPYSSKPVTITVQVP

T7: cynomolgus monkey FcγRIIIaS extracellular domain with C-terminal His-tag (cynomolgus monkey, UniProt Q8SPW2 21-206 at identity 1.00))
T7 construct: also called cyno FcgRIIIaS; cynoFcγRIIIaS
T7 chain: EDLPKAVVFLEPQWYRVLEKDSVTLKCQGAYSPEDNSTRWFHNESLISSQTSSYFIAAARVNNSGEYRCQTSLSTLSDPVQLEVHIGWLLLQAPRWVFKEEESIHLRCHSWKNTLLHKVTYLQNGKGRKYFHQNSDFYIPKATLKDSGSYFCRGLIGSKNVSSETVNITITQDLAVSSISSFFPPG

T8: human FcγRIIaH extracellular domain with C-terminal His-tag (human, UniProt P12318 34-217)
T8 construct: also called human FcgRIIaH; FcγRIIa (type H)
T8 sequence: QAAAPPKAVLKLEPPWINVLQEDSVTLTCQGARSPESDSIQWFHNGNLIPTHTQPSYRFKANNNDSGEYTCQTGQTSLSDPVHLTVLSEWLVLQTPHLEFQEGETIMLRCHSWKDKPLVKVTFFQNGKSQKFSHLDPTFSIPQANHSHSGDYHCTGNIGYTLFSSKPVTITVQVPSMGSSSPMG


What was measured:
Assay in all cases: SPR (BIACORE), antibody captured, FcgR analyte
[1] = target: T1, human FcγRIIaR extracellular domain …
[2] = target: T2, human FcγRIIb extracellular domain with …
[3] = target: T3, cynomolgus monkey FcγRIIa2 …
[4] = target: T4, cynomolgus monkey FcγRIIa3 …
[5] = target: T5, cynomolgus monkey FcγRIIa1 …
[6] = target: T6, cynomolgus monkey FcγRIIb extracellular …
[7] = target: T7, cynomolgus monkey FcγRIIIaS …
[8] = target: T8, human FcγRIIaH extracellular domain …

Binder	Kd [1] [µM]	Kd [2] [µM]	Kd [3] [µM]	Kd [4] [µM]	Kd [5] [µM]	Kd [6] [µM]	Kd [7] [µM]	Kd [8] [µM]
M103205H795-MY209/M103202L889-SK1 (antibody, human IgG1, kappa, Substitutions introduced into M103205H795-SG1, expressed with M103202L889-SK1 as light chain; EU numbering) heavy: QVTLKESGPVLVKPTETLTLTCTVSGIDLSHDDISWVRQAPGKGLEWVGIISYAGSTYYASWAKGRLTISKDTSKNQVVLTMTNMDPVDTATYYCARGVPAYSHGGDLWGQGTLVTVSSASTKGPSVFPLAPSSKSTSGGTAALGCLVKDYFPEPVTVSWNSGALTSGVHTFPAVLQSSGLYSLSSVVTVPSSSLGTQTYICNVNHKPSNTKVDKKVEPKSCDKTHTCPPCPAPELLNGPSVFLFPPKPKDTLMISRTPEVTCVVVDVSDEDPEVKFNWYVDGVEVHNAKTKPREELYNSTYRVVSVLTVLHQDWLNGKEYKCKVSNTALPKPIEKTISKAKGQPREPQVYTLPPSREEMTKNQVSLTCLVKGFYPSDIAVEWESNGQPENNYKTTPPVLDSDGSFFLYSKLTVDKSRWQQGNVFSCSVMHEALHNHYTQKSLSLSP light: DIVMTQSPATLSLSPGERATLSCTSSQSVYHANWLSWFQQKPGQPPKLLIYWASTLAYGVPSRFSGSGSGTDFTLTISSLQPEDAATYYCAGGYGGGRYAFGQGTKVEIKRTVAAPSVFIFPPSDEQLKSGTASVVCLLNNFYPREAKVQWKVDNALQSGNSQESVTEQDSKDSTYSLSSTLTLSKADYEKHKVYACEVTHQGLSSPVTKSFNRGEC	0.88	0.5	0.69	1.9	0.63	0.19	2.2	0.57
M103205H795-MY340/M103202L889-SK1 (antibody, human IgG1, kappa, Substitutions introduced into M103205H795-SG1, expressed with M103202L889-SK1 as light chain; EU numbering) heavy: QVTLKESGPVLVKPTETLTLTCTVSGIDLSHDDISWVRQAPGKGLEWVGIISYAGSTYYASWAKGRLTISKDTSKNQVVLTMTNMDPVDTATYYCARGVPAYSHGGDLWGQGTLVTVSSASTKGPSVFPLAPSSKSTSGGTAALGCLVKDYFPEPVTVSWNSGALTSGVHTFPAVLQSSGLYSLSSVVTVPSSSLGTQTYICNVNHKPSNTKVDKKVEPKSCDKTHTCPPCPAPELLLGPSVFLFPPKPKDTLMISRTPEVTCVVVDVSDEDPEVKFNWYVDGVEVHNAKTKPREELYNSTYRVVSVLTVLHQDWLNGKEYKCKVSNKALPKPIEKTISKAKGQPREPQVYTLPPSREEMTKNQVSLTCLVKGFYPSDIAVEWESNGQPENNYKTTPKVLDSDGSFFLYSKLTVDKSRWQQGNVFSCSVMHEALHNHYTQKSLSLSP light: DIVMTQSPATLSLSPGERATLSCTSSQSVYHANWLSWFQQKPGQPPKLLIYWASTLAYGVPSRFSGSGSGTDFTLTISSLQPEDAATYYCAGGYGGGRYAFGQGTKVEIKRTVAAPSVFIFPPSDEQLKSGTASVVCLLNNFYPREAKVQWKVDNALQSGNSQESVTEQDSKDSTYSLSSTLTLSKADYEKHKVYACEVTHQGLSSPVTKSFNRGEC	0.83	3.3	4.9	23	4.3	1.1	2.3	0.31
M103205H795-MY283/M103202L889-SK1 (antibody, human IgG1, kappa, Substitutions introduced into M103205H795-SG1, expressed with M103202L889-SK1 as light chain; EU numbering) heavy: QVTLKESGPVLVKPTETLTLTCTVSGIDLSHDDISWVRQAPGKGLEWVGIISYAGSTYYASWAKGRLTISKDTSKNQVVLTMTNMDPVDTATYYCARGVPAYSHGGDLWGQGTLVTVSSASTKGPSVFPLAPSSKSTSGGTAALGCLVKDYFPEPVTVSWNSGALTSGVHTFPAVLQSSGLYSLSSVVTVPSSSLGTQTYICNVNHKPSNTKVDKKVEPKSCDKTHTCPPCPAPELLTGPSVFLFPPKPKDTLMISRTPEVTCVVVDVSDEDPEVKFNWYVDGVEVHNAKTKPREELYNSTYRVVSVLTVLHQDWLNGKEYKCKVSNKALPKPIEKTISKAKGQPREPQVYTLPPSREEMTKNQVSLTCLVKGFYPSDIAVEWESNGQPENNYKTTPPVLDSDGSFFLYSKLTVDKSRWQQGNVFSCSVMHEALHNHYTQKSLSLSP light: DIVMTQSPATLSLSPGERATLSCTSSQSVYHANWLSWFQQKPGQPPKLLIYWASTLAYGVPSRFSGSGSGTDFTLTISSLQPEDAATYYCAGGYGGGRYAFGQGTKVEIKRTVAAPSVFIFPPSDEQLKSGTASVVCLLNNFYPREAKVQWKVDNALQSGNSQESVTEQDSKDSTYSLSSTLTLSKADYEKHKVYACEVTHQGLSSPVTKSFNRGEC	0.35	1.8	1.6	4.4	1.4	0.42	2.2	0.14
M103205H795-MY339/M103202L889-SK1 (antibody, human IgG1, kappa, Substitutions introduced into M103205H795-SG1, expressed with M103202L889-SK1 as light chain; EU numbering) heavy: QVTLKESGPVLVKPTETLTLTCTVSGIDLSHDDISWVRQAPGKGLEWVGIISYAGSTYYASWAKGRLTISKDTSKNQVVLTMTNMDPVDTATYYCARGVPAYSHGGDLWGQGTLVTVSSASTKGPSVFPLAPSSKSTSGGTAALGCLVKDYFPEPVTVSWNSGALTSGVHTFPAVLQSSGLYSLSSVVTVPSSSLGTQTYICNVNHKPSNTKVDKKVEPKSCDKTHTCPPCPAPELLLGPSVFLFPPKPKDTLMISRTPEVTCVVVDVSDEDPEVKFNWYVDGVEVHNAKTKPREEQYNSTYRVVSVLTVLHQDWLNGKEYKCKVSNTALPKPIEKTISKAKGQPREPQVYTLPPSREEMTKNQVSLTCLVKGFYPSDIAVEWESNGQPENNYKTTPKVLDSDGSFFLYSKLTVDKSRWQQGNVFSCSVMHEALHNHYTQKSLSLSP light: DIVMTQSPATLSLSPGERATLSCTSSQSVYHANWLSWFQQKPGQPPKLLIYWASTLAYGVPSRFSGSGSGTDFTLTISSLQPEDAATYYCAGGYGGGRYAFGQGTKVEIKRTVAAPSVFIFPPSDEQLKSGTASVVCLLNNFYPREAKVQWKVDNALQSGNSQESVTEQDSKDSTYSLSSTLTLSKADYEKHKVYACEVTHQGLSSPVTKSFNRGEC	0.53	2.8	3	3.8	3.4	0.75	0.76	0.41
M103205H795-MY380/M103202L889-SK1 (antibody, human IgG1, kappa, Substitutions introduced into M103205H795-SG1, expressed with M103202L889-SK1 as light chain; EU numbering) heavy: QVTLKESGPVLVKPTETLTLTCTVSGIDLSHDDISWVRQAPGKGLEWVGIISYAGSTYYASWAKGRLTISKDTSKNQVVLTMTNMDPVDTATYYCARGVPAYSHGGDLWGQGTLVTVSSASTKGPSVFPLAPSSKSTSGGTAALGCLVKDYFPEPVTVSWNSGALTSGVHTFPAVLQSSGLYSLSSVVTVPSSSLGTQTYICNVNHKPSNTKVDKKVEPKSCDKTHTCPPCPAPELLNGPSVFLFPPKPKDTLMISRTPEVTCVVVDVSEEDPEVKFNWYVDGVEVHNAKTKPREEQYNSTYRVVSVLTVLHQDWLNGKEYKCKVSNKALPKPIEKTISKAKGQPREPQVYTLPPSREEMTKNQVSLTCLVKGFYPSDIAVEWESNGQPENNYKTTPKVLDSDGSFFLYSKLTVDKSRWQQGNVFSCSVMHEALHNHYTQKSLSLSP light: DIVMTQSPATLSLSPGERATLSCTSSQSVYHANWLSWFQQKPGQPPKLLIYWASTLAYGVPSRFSGSGSGTDFTLTISSLQPEDAATYYCAGGYGGGRYAFGQGTKVEIKRTVAAPSVFIFPPSDEQLKSGTASVVCLLNNFYPREAKVQWKVDNALQSGNSQESVTEQDSKDSTYSLSSTLTLSKADYEKHKVYACEVTHQGLSSPVTKSFNRGEC	0.85	0.48	1	3.3	–	0.29	2.8	0.43
